What all share (test): purified protein
What all share (format): biochemical, Thalictrum flavum

In one series the test system is CCCCCC=O. The conditions noted are these: 2.5 mM dopamine (nonsaturating), 50 mM Hepes, 37 °C.
The next series deals with NCCc1ccc(O)c(O)c1. The conditions noted are these: 2.5 mM 4-HPAA (nonsaturating), 50 mM Hepes, 37 °C.
The test system of a further series is CC(C)=CCC[C@@H](C)CC=O. The conditions noted are these: 2.5 mM dopamine (nonsaturating), 50 mM Hepes, 37 °C.
The test system of another series is CC(C)=CCC[C@H](C)CC=O. The following applies: 2.5 mM dopamine (nonsaturating), 50 mM Hepes, 37 °C.
For another series, the system named is O=CCc1ccc(O)cc1. The following applies: 2.5 mM dopamine (nonsaturating), 50 mM Hepes, 37 °C.

By Km is commonly meant the substrate concentration at which the rate is half of its maximum. One may read the Vmax as the top rate of the reaction or transport when substrate is in excess. The term kcat denotes the maximal rate divided by the concentration of active sites. The term kcat/Km denotes the second-order rate constant that governs catalysis at low substrate concentration.

On to “TfNCS (Δ29TfNCS) (Thalictrum flavum subsp. glaucum; Y108F)”, for which, in the series with CCCCCC=O, the Km is listed as 7.6 ± 0.9 mM, the Vmax is 7.14 µmol/min/mg, the kcat is 2.5 ± 0.1 s⁻¹ and the kcat/Km amounted to 330 ± 40 M⁻¹ s⁻¹. For the same substance, in the series with NCCc1ccc(O)c(O)c1, the Km worked out at 13.3 ± 0.7 mM, the Vmax was found to be 29.1 µmol/min/mg, the kcat came out at 10.2 ± 0.3 s⁻¹ and the specificity constant (kcat/Km) worked out at 760 ± 50 M⁻¹ s⁻¹.

In the case of “TfNCS (Δ29TfNCS) (Thalictrum flavum subsp. glaucum)”, the Km with CC(C)=CCC[C@@H](C)CC=O is 0.53 ± 0.14 mM; with CC(C)=CCC[C@H](C)CC=O, 0.38 ± 0.10 mM; in the series with CCCCCC=O, 13.4 ± 1.8 mM; in the series on NCCc1ccc(O)c(O)c1, 22.2 ± 1.5 mM; with O=CCc1ccc(O)cc1, 18.1 ± 1.4 mM. Also, the Vmax in the series with CC(C)=CCC[C@@H](C)CC=O turned out to be 1.07 µmol/min/mg; in the series with CC(C)=CCC[C@H](C)CC=O, 1.32 µmol/min/mg; with CCCCCC=O, 12.3 µmol/min/mg; with NCCc1ccc(O)c(O)c1, 69 µmol/min/mg; in the series with O=CCc1ccc(O)cc1, 53.6 µmol/min/mg. Moreover, the kcat in the series with CC(C)=CCC[C@@H](C)CC=O came out at 0.37 ± 0.03 s⁻¹; in the series on CC(C)=CCC[C@H](C)CC=O, 0.46 ± 0.02 s⁻¹; with CCCCCC=O, 4.3 ± 0.3 s⁻¹; in the series with NCCc1ccc(O)c(O)c1, 24 ± 1 s⁻¹; in the series on O=CCc1ccc(O)cc1, 18.7 ± 0.9 s⁻¹. The kcat/Km worked out at 710 ± 200 M⁻¹ s⁻¹ in the series with CC(C)=CCC[C@@H](C)CC=O; 1200 ± 310 M⁻¹ s⁻¹ in the series with CC(C)=CCC[C@H](C)CC=O; 320 ± 50 M⁻¹ s⁻¹ in the series on CCCCCC=O; 1090 ± 80 M⁻¹ s⁻¹ with NCCc1ccc(O)c(O)c1; 1030 ± 90 M⁻¹ s⁻¹ in the series with O=CCc1ccc(O)cc1.

As to “TfNCS (Δ29TfNCS) (Thalictrum flavum subsp. glaucum; L76A)”, the Km in the series with CC(C)=CCC[C@@H](C)CC=O turned out to be 0.49 ± 0.11 mM; with CC(C)=CCC[C@H](C)CC=O, 0.59 ± 0.09 mM; in the series on CCCCCC=O, 13.4 ± 0.8 mM; in the series with NCCc1ccc(O)c(O)c1, 16.8 ± 1.0 mM; in the series with O=CCc1ccc(O)cc1, 17.4 ± 1.0 mM. Besides, the Vmax in the series on CC(C)=CCC[C@@H](C)CC=O was 1.58 µmol/min/mg; in the series with CC(C)=CCC[C@H](C)CC=O it was 2.7 µmol/min/mg; in the series with CCCCCC=O, 9 µmol/min/mg; in the series on NCCc1ccc(O)c(O)c1, 38.9 µmol/min/mg; in the series on O=CCc1ccc(O)cc1, 40.9 µmol/min/mg. In addition, the kcat worked out at 0.55 ± 0.03 s⁻¹ in the series on CC(C)=CCC[C@@H](C)CC=O; 0.93 ± 0.05 s⁻¹ with CC(C)=CCC[C@H](C)CC=O; 3.2 ± 0.1 s⁻¹ in the series with CCCCCC=O; 13.6 ± 0.5 s⁻¹ with NCCc1ccc(O)c(O)c1; 14.3 ± 0.5 s⁻¹ in the series with O=CCc1ccc(O)cc1. Besides, the kcat/Km was determined as 1130 ± 270 M⁻¹ s⁻¹ with CC(C)=CCC[C@@H](C)CC=O; 1570 ± 250 M⁻¹ s⁻¹ with CC(C)=CCC[C@H](C)CC=O; 240 ± 20 M⁻¹ s⁻¹ in the series with CCCCCC=O; 810 ± 60 M⁻¹ s⁻¹ in the series with NCCc1ccc(O)c(O)c1; 820 ± 50 M⁻¹ s⁻¹ with O=CCc1ccc(O)cc1.

For the origin of these results see paper PMC4413047, “‘Dopamine-first’ mechanism enables the rational engineering of the norcoclaurine synthase aldehyde activity profile” (The Febs Journal, 2015).
